Measured values reported in publication PMC9868088.

Key:
[1] = WB abundance of GFP-β-catenin; details: glycan gained; control: GFP-β-catenin + individual aptamers T1 · AP3
[2] = WB phospho-specific antibody; details: glycan gained; control: GFP-β-catenin + individual aptamers T1 · AP3
[3] = WB abundance of endogenous β-catenin; details: glycan gained; control: individual aptamers T1 · bc339

B1: β-catenin: NL1F DS aptamers (protein)
parent chain: MATQADLMELDMAMEPDRKAAVSHWQQQSYLDSGIHSGATTTAPSLSGKGNPEEEDVDTSQVLYEWEQGFSQSFTQEQVADIDGQYAMTRAQRVRAAMFPETLDEGMQIPSTQFDAAHPTNVQRLAEPSQMLKHAVVNLINYQDDAELATRAIPELTKLLNDEDQVVVNKAAVMVHQLSKKEASRHAIMRSPQMVSAIVRTMQNTNDVETARCTAGTLHNLSHHREGLLAIFKSGGIPALVKMLGSPVDSVLFYAITTLHNLLLHQEGAKMAVRLAGGLQKMVALLNKTNVKFLAITTDCLQILAYGNQESKLIILASGGPQALVNIMRTYTYEKLLWTTSRVLKVLSVCSSNKPAIVEAGGMQALGLHLTDPSQRLVQNCLWTLRNLSDAATKQEGMEGLLGTLVQLLGSDDINVVTCAAGILSNLTCNNYKNKMMVCQVGGIEALVRTVLRAGDREDITEPAICALRHLTSRHQEAEMAQNAVRLHYGLPVVVKLLHPPSHWPLIKATVGLIRNLALCPANHAPLREQGAIPRLVQLLVRAHQDTQRRTSMGGTQQQFVEGVRMEEIVEGCTGALHILARDVHNRIVIRGLNTIPLFVQLLYSPIENIQRVAAGVLCELAQDKEAAEAIEAEGATAPLTELLHSRNEGVATYAAAVLFRMSEDKPQDYKKRLSVELTSSLFRTEPMAWNETADLGLDIGAQGEPLGYRQDDPSYRSFHSGGYGQDALGMDPMMEHEMGGHHPGADYPVDGLPDLGHAQDLMDGLPPGDSNQLAWFDTDL
expression_or_secretion [1]: increases

B2: β-catenin: NL1F30 (protein)
parent chain: MATQADLMELDMAMEPDRKAAVSHWQQQSYLDSGIHSGATTTAPSLSGKGNPEEEDVDTSQVLYEWEQGFSQSFTQEQVADIDGQYAMTRAQRVRAAMFPETLDEGMQIPSTQFDAAHPTNVQRLAEPSQMLKHAVVNLINYQDDAELATRAIPELTKLLNDEDQVVVNKAAVMVHQLSKKEASRHAIMRSPQMVSAIVRTMQNTNDVETARCTAGTLHNLSHHREGLLAIFKSGGIPALVKMLGSPVDSVLFYAITTLHNLLLHQEGAKMAVRLAGGLQKMVALLNKTNVKFLAITTDCLQILAYGNQESKLIILASGGPQALVNIMRTYTYEKLLWTTSRVLKVLSVCSSNKPAIVEAGGMQALGLHLTDPSQRLVQNCLWTLRNLSDAATKQEGMEGLLGTLVQLLGSDDINVVTCAAGILSNLTCNNYKNKMMVCQVGGIEALVRTVLRAGDREDITEPAICALRHLTSRHQEAEMAQNAVRLHYGLPVVVKLLHPPSHWPLIKATVGLIRNLALCPANHAPLREQGAIPRLVQLLVRAHQDTQRRTSMGGTQQQFVEGVRMEEIVEGCTGALHILARDVHNRIVIRGLNTIPLFVQLLYSPIENIQRVAAGVLCELAQDKEAAEAIEAEGATAPLTELLHSRNEGVATYAAAVLFRMSEDKPQDYKKRLSVELTSSLFRTEPMAWNETADLGLDIGAQGEPLGYRQDDPSYRSFHSGGYGQDALGMDPMMEHEMGGHHPGADYPVDGLPDLGHAQDLMDGLPPGDSNQLAWFDTDL
other: Ser675 phosphorylation [2]: increases

B3: β-catenin: 3JB8F+12 (protein)
parent chain: MATQADLMELDMAMEPDRKAAVSHWQQQSYLDSGIHSGATTTAPSLSGKGNPEEEDVDTSQVLYEWEQGFSQSFTQEQVADIDGQYAMTRAQRVRAAMFPETLDEGMQIPSTQFDAAHPTNVQRLAEPSQMLKHAVVNLINYQDDAELATRAIPELTKLLNDEDQVVVNKAAVMVHQLSKKEASRHAIMRSPQMVSAIVRTMQNTNDVETARCTAGTLHNLSHHREGLLAIFKSGGIPALVKMLGSPVDSVLFYAITTLHNLLLHQEGAKMAVRLAGGLQKMVALLNKTNVKFLAITTDCLQILAYGNQESKLIILASGGPQALVNIMRTYTYEKLLWTTSRVLKVLSVCSSNKPAIVEAGGMQALGLHLTDPSQRLVQNCLWTLRNLSDAATKQEGMEGLLGTLVQLLGSDDINVVTCAAGILSNLTCNNYKNKMMVCQVGGIEALVRTVLRAGDREDITEPAICALRHLTSRHQEAEMAQNAVRLHYGLPVVVKLLHPPSHWPLIKATVGLIRNLALCPANHAPLREQGAIPRLVQLLVRAHQDTQRRTSMGGTQQQFVEGVRMEEIVEGCTGALHILARDVHNRIVIRGLNTIPLFVQLLYSPIENIQRVAAGVLCELAQDKEAAEAIEAEGATAPLTELLHSRNEGVATYAAAVLFRMSEDKPQDYKKRLSVELTSSLFRTEPMAWNETADLGLDIGAQGEPLGYRQDDPSYRSFHSGGYGQDALGMDPMMEHEMGGHHPGADYPVDGLPDLGHAQDLMDGLPPGDSNQLAWFDTDL
expression_or_secretion [3]: increases

B4: β-catenin: NL8F100 (protein)
parent chain: MATQADLMELDMAMEPDRKAAVSHWQQQSYLDSGIHSGATTTAPSLSGKGNPEEEDVDTSQVLYEWEQGFSQSFTQEQVADIDGQYAMTRAQRVRAAMFPETLDEGMQIPSTQFDAAHPTNVQRLAEPSQMLKHAVVNLINYQDDAELATRAIPELTKLLNDEDQVVVNKAAVMVHQLSKKEASRHAIMRSPQMVSAIVRTMQNTNDVETARCTAGTLHNLSHHREGLLAIFKSGGIPALVKMLGSPVDSVLFYAITTLHNLLLHQEGAKMAVRLAGGLQKMVALLNKTNVKFLAITTDCLQILAYGNQESKLIILASGGPQALVNIMRTYTYEKLLWTTSRVLKVLSVCSSNKPAIVEAGGMQALGLHLTDPSQRLVQNCLWTLRNLSDAATKQEGMEGLLGTLVQLLGSDDINVVTCAAGILSNLTCNNYKNKMMVCQVGGIEALVRTVLRAGDREDITEPAICALRHLTSRHQEAEMAQNAVRLHYGLPVVVKLLHPPSHWPLIKATVGLIRNLALCPANHAPLREQGAIPRLVQLLVRAHQDTQRRTSMGGTQQQFVEGVRMEEIVEGCTGALHILARDVHNRIVIRGLNTIPLFVQLLYSPIENIQRVAAGVLCELAQDKEAAEAIEAEGATAPLTELLHSRNEGVATYAAAVLFRMSEDKPQDYKKRLSVELTSSLFRTEPMAWNETADLGLDIGAQGEPLGYRQDDPSYRSFHSGGYGQDALGMDPMMEHEMGGHHPGADYPVDGLPDLGHAQDLMDGLPPGDSNQLAWFDTDL
expression_or_secretion [3]: increases
